Test results as given in US20130058943A1.

What was measured:
[1] = target: recombinant bovine TNF (bovine) (UniProt Q06599); assay: cell-based or functional assay
[2] = target: recombinant canine TNF (canine) (UniProt P51742); assay: cell-based or functional assay
[3] = target: recombinant cynomolgus monkey TNF (cynomolgus monkey) (UniProt P79337); assay: cell-based or functional assay
[4] = target: recombinant human TNF (human) (UniProt P01375); assay: cell-based or functional assay
[5] = target: recombinant murine TNF (murine) (UniProt P06804); assay: cell-based or functional assay
[6] = target: recombinant rat TNF (rat) (UniProt P16599); assay: cell-based or functional assay
[7] = target: recombinant rhesus macaque TNF (rhesus macaque) (UniProt P48094); assay: cell-based or functional assay
[8] = target: transmembrane TNF on stimulated human PBMC (human) (UniProt P01375); assay: cell-based or functional assay
[9] = target: recombinant human TNF (human) (UniProt P01375); assay: anti-TNF ELISA, protein by BCA; first of two lots
[10] = target: recombinant human TNF (human) (UniProt P01375); assay: anti-TNF ELISA, protein by BCA; second of two lots
[11] = target: recombinant human TNF (human) (UniProt P01375); assay: anti-TNF ELISA, AU/mg of final lot over defatted colostrum
[12] = target: recombinant human TNF (human) (UniProt P01375); assay: sandwich ELISA, rhTNF 250 pg/ml captured by plate-bound antibody
[13] = target: recombinant human IL-6 (human) (UniProt P05231); assay: sandwich ELISA, rhIL-6 300 pg/ml captured by plate-bound antibody
[14] = target: recombinant human TNF (human) (UniProt P01375); assay: table head: EC50 in TNF ELISA; the text that introduces the table speaks of the L929 neutralization assay

UniProt P05231, sequence (P05231 30-212 limits assumed): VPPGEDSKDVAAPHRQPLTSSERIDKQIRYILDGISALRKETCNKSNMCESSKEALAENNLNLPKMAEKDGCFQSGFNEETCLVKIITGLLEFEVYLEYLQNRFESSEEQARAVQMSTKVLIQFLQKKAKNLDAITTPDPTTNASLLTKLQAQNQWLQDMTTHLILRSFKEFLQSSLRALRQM
UniProt P48094, sequence (P48094 whole entry, form in doubt): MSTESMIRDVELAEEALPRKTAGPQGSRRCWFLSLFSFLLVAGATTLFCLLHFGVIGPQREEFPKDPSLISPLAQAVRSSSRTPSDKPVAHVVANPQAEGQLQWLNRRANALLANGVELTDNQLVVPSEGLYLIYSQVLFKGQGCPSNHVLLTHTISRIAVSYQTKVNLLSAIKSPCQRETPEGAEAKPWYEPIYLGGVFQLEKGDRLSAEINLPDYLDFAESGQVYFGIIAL
UniProt P16599, sequence (P16599 whole entry, form in doubt): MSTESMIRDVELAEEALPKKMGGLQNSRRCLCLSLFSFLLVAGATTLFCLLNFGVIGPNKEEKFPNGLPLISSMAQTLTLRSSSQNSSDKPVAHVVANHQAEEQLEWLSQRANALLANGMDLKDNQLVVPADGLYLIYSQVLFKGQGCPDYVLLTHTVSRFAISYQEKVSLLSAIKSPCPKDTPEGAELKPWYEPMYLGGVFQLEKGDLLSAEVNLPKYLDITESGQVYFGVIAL
UniProt P79337, sequence (P79337 whole entry, form in doubt): as the sequence (P48094 whole entry, form in doubt) above, with R8Q, T45A, L113V counted along it
UniProt P06804, sequence (P06804 whole entry, form in doubt): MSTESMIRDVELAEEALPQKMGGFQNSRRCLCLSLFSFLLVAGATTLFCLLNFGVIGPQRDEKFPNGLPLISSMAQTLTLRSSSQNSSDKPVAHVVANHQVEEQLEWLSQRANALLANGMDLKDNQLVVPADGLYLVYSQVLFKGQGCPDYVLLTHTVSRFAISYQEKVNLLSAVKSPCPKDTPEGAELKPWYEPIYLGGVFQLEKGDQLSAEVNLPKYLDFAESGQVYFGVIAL
UniProt P51742, sequence (P51742 whole entry, form in doubt): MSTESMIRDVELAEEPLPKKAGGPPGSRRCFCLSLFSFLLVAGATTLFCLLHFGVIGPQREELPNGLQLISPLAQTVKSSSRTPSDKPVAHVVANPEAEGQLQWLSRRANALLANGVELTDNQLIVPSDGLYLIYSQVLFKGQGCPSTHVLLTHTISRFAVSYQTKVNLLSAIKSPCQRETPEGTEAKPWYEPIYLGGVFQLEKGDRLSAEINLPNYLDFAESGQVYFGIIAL
UniProt Q06599, sequence (Q06599 whole entry, form in doubt): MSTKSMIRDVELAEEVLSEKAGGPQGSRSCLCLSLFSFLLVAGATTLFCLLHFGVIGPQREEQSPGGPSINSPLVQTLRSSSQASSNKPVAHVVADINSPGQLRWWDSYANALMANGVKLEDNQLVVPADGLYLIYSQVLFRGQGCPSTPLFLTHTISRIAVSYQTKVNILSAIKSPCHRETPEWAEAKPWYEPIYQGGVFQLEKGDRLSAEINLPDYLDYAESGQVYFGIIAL

EC50, L929 neutralization assay [1] [µg/mL] | EC50, L929 neutralization assay [2] [µg/mL] | EC50, L929 neutralization assay [3] [µg/mL] | EC50, L929 neutralization assay [4] [µg/mL] | EC50, L929 neutralization assay [5] [µg/mL] | EC50, L929 neutralization assay [6] [µg/mL] | EC50, L929 neutralization assay [7] [µg/mL] | Late apoptotic cells, annexin V / propidium iodide FACS of stimulated human PBMC (untreated 27.16%) [8] [%] | Total apoptotic cells, annexin V / propidium iodide FACS of stimulated human PBMC (untreated 34.65%) [8] [%] | anti-TNF activity by ELISA per mg protein (AU/mg protein) [9] | anti-TNF activity by ELISA per mg protein (AU/mg protein) [10] | fold increase of potency against defatted colostrum [11] [fold] | Absorbance 450 nm (absorbance at 450 nm) [12] | Absorbance 450 nm (absorbance at 450 nm) [13] | EC50 [14] [µg/mL] | Substance
> 2000 | 250 | 48 | 28 | > 2000 | > 2000 | 32 | 43.3 | 52.1 | 634 | 526 | 1.9 | 0.76 | 0.03 | 15.9 | AVX-470, bovine colostrum-derived polyclonal anti-hTNF antibody
 |  |  |  |  |  |  |  |  |  |  |  | -0.01 | 0.01 |  | Control Bovine Ig (antibody)
